Assay results taken from paper PMC5095173, “Disulfide-activated protein kinase G Iα regulates cardiac diastolic relaxation and fine-tunes the Frank–Starling response” (Nature Communications, 2016).

Assays:
[1] = system: PKGIα Cys42 interchain disulfide bond; assay: Dihydrolipoic acid/lipoic acid redox titration of recombinant PKGIα, disulfide dimerization by SDS-PAGE; assay type: physicochemical; details: in vitro, unpublished data
Excerpt: PhD thesis (2015) by Daniel Stubbert from this lab. We have amended the manuscript so that it now states that the PKGIα Cys42 disulfide bond is reversible and referenced the literature detailing the auranofin experiments described above:
“Reactive oxygen species (ROS) promote formation of a reversible intermolecular disulfide bond between the two subunits of the PKGIα homodimer at Cys424,5.”
Furthermore, in relation to reversibility, we also have unpublished data relating to the thermodynamic stability of the Cys42 interchain disulfide bond in vitro. We have performed a dihydrolipoic acid/lipoic acid redox titration with recombinant PKGIα and analysed the amount of disulfide dimerization by SDS-PAGE. The equilibrium redox potential was determined as approximately −280 mV; a value within the conﬁnes of the cellular redox potenƟal which ranges from ~−350 to –150 mV depending on e.g. the organelle an d stage of the cell cycle (Jones, D. P.
Journal of Internal Medicine 268, 432-448 (2010); Jones, D. P. American Journal of Physiology - Cell […]
consistent with our findings from tissue and cells, and arguably ex actly what would be expected of a protein that is required to rapidly transduce an oxidant signal into a biological response.
--What are the consequences of cys42 oxidation for cGMP activation of PKG? […]

[2] = system: PKGIα (analogue-sensitive M438G), disulfide-activated; assay: Chemical genetic phosphoproteomic screen, disulfide-activated PKGIα M438G versus unactivated control; assay type: biochemical, human PKGIα; substrates in rat heart homogenate
Method in brief: (§1)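 Analogue-sensitive human PKGIα mutants (M438G, air-oxidized to disulfide dimer; C42S/M438G, cGMP-activated), expressed in 293-F cells, thiophosphorylate substrates in rat left-ventricle lysate (20 mg ml) using N6-alkylated ATPγS. Thiophosphopeptides are recovered by covalent capture and identified with sites by LC–MS/MS, each compared against an unactivated control.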

[3] = system: PKGIα (analogue-sensitive C42S/M438G), cGMP-activated; assay: Chemical genetic phosphoproteomic screen, cGMP-activated PKGIα C42S/M438G versus unactivated control; assay type: biochemical, human PKGIα; substrates in rat heart homogenate
Method in brief: as §1

B1: PKGIα: recombinant PKGIα; Cys42 interchain disulfide bond (protein)
chain: MSELEEDFAKILMLKEERIKELEKRLSEKEEEIQELKRKLHKCQSVLPVPSTHIGPRTTRAQGISAEPQTYRSFHDLRQAFRKFTKSERSKDLIKEAILDNDFMKNLELSQIQEIVDCMYPVEYGKDSCIIKEGDVGSLVYVMEDGKVEVTKEGVKLCTMGPGKVFGELAILYNCTRTATVKTLVNVKLWAIDRQCFQTIMMRTGLIKHTEYMEFLKSVPTFQSLPEEILSKLADVLEETHYENGEYIIRQGARGDTFFIISKGTVNVTREDSPSEDPVFLRTLGKGDWFGEKALQGEDVRTANVIAAEAVTCLVIDRDSFKHLIGGLDDVSNKAYEDAEAKAKYEAEAAFFANLKLSDFNIIDTLGVGGFGRVELVQLKSEESKTFAMKILKKRHIVDTRQQEHIRSEKQIMQGAHSDFIVRLYRTFKDSKYLYMLMEACLGGELWTILRDRGSFEDSTTRFYTACVVEAFAYLHSKGIIYRDLKPENLILDHRGYAKLVDFGFAKKIGFGKKTWTFCGTPEYVAPEIILNKGHDISADYWSLGILMYELLTGSPPFSGPDPMKTYNIILRGIDMIEFPKKIAKNAANLIKKLCRDNPSERLGNLKNGVKDIQKHKWFEGFNWEGLRKGTLTPPIIPSVASPTDTSNFDSFPEDNDEPPPDDNSGWDIDF
modifications: intermolecular disulfide bond at Cys42 between the two subunits
equilibrium redox potential of the Cys42 interchain disulfide bond [1]: approximately −280 mV

B2: Wbp11 pS600 (protein, UniProt Q5PQQ2 1-641, looked up)
WW domain-binding protein 11: MGRRSTSSTKSGKFMNPTDQARKEARKRELKKNKKQRMMVRAAVLKMKDPKQIIRDMEKLDEMEFNPVQQPQLNEKVLKDKRKKLRETFERILRLYEKENPDIYKELRKLEVEYEQKRAQLSQYFDAVKNAQHVEVESIPLPDMPHAPSNILIQDIPLPGAQPPSILKKTSAYGPPTRAVSILPLLGHGVPRLPPGRKPPGPPPGPPPPQVLQMYGRKVGFALDLPPRRRDEDMLYSPELAQRGHDDDMSSTSEDDGYPEDMDQDKHDDSTEDSDTDRSDAESDGDEFGHRDDSERDNTEEKKSGLSVRFADMPGKSRKKKKNMKELTPLQAMMLRMAGQEIPEEGREVEEFSEEEDDDDSEDSEAEKPSQKQHKEDSHADGSSAASSQQQAPPQAVPPSQIQAPPMPGPPPLGPPPAPPLRPPGPPTGLPPGPPPGAPPFLRPPGMPGIRGPLPRLLPPGPPPGRPPGPPPGPPPGLPPGPPPRGPPPRLPPPAPPGIPPPRPGMMRPPLVPPLGPAPPGLFPPAPLPNPGVLSAPPSLIQRPKADDASAATIEKKATATISAKPQITNPKAEVTRFVPTALRVRRENKGATAVPQRRSEEDSAVPVAKAAPRSGPSVPVSVQTKDDVYEAFMKEMEGLL
modifications: phosphorylated at S600
log2 fold changes ([2]; Group 2 (disulfide-activated) vs Group 3 (control)): 2.503 | log2 fold changes ([3]; Group 1 (cGMP-activated) vs Group 3 (control)): 4.049

B3: Pfkfb2 pS486 (protein, UniProt Q9JJH5 2-557, looked up)
6-phosphofructo-2-kinase/fruct …: SENSTFSTEDSSSSSYKPHASNLRRAGKKCSWASYMTNSPTLIVMIGLPARGKTYVSKKLTRYLNWIGVPTKVFNLGVYRREAVKSYKSYDFFRHDNEEAMKIRKQCALVALEDVKAYFTEESGQIAVFDATNTTRERRDMILNFAKQNAFKVFFVESVCDDPDVIAANILEVKVSSPDYPERNRENVMEDFLKRIECYKVTYQPLDPDNYDKDLSFIKVMNVGQRFLVNRVQDYIQSKIVYYLMNIHVHPRTIYLCRHGESEFNLLGKIGGDSGLSLRGKQFAQALKKFLEEQEIQDLKVWTSQLKRTIQTAESLGVTYEQWKILNEIDAGVCEEMTYSEIEQRYPEEFALRDQEKYLYRYPGGESYQDLVQRLEPVIMELERQGNVLVISHQAVMRCLLAYFLDKGADELPYLRCPLHIIFKLTPVAYGCKVETITLNVEAVDTHRDKPTHNFPKSQTPVRMRRNSFTPLSSSNTIRRPRNYSVGSRPLKPLSPLRALDMQEGADQPKTQVQQGSAQATEHLQKALEFANGHREVENVLAKHRRPSMASLTLLS
modifications: phosphorylated at S486
log2 fold change Disulfide vs Control ([2]; control = PKGIα C42S/M438G): -0.4793 | log2 fold change cGMP vs Control ([3]; control = PKGIα C42S/M438G): 0.2997
